# US20240382605A1 (IONIS PHARMACEUTICALS, published 2024)
# Where two headings read alike, the source gives them in different places. Starred links: 1 amine or outer side, 2 acyl side, 3 side chain; linkers in the order of their positions; H or OH if unused. Positions of bridges follow the written chain, without caps; N, C: chain ends. Non-standard residues stand in square brackets, D forms with d. No end group written: not given here. *: point of attachment. azidopropyl = N-terminal modification AzPro, [N-]=[N+]=NCCC*; TATB = O=C(C[*:1])N1CN(C(=O)C[*:2])CN(C(=O)C[*:3])C1; oligonucleotide 1590463 = not defined here; Lys(N3) = [N-]=[N+]=NCCCC[C@H](N)C(=O)O; Hyp = O=C(O)[C@@H]1C[C@@H](O)CN1; Aze = O=C(O)[C@@H]1CCN1
# Assays:
# [1] = target: T1, hCD71-Nluc fusion protein (human, UniProt P02786 1-760); experiment: nanoBRET competition, tracer BCY17871-1598988 60 nM, HEK293 hCD71-Nluc membranes
# T1 construct: whole, on cells; Used as crude membrane fractions of HEK293 cells stably expressing hCD71-Nluc; also called human transferrin receptor, CD71, fused to NanoLuc; not shown: NanoLuc (ProMega) luciferase joined through its N-terminal Val
# T1 sequence (P02786 other isoform, or with tags, fused parts or gaps): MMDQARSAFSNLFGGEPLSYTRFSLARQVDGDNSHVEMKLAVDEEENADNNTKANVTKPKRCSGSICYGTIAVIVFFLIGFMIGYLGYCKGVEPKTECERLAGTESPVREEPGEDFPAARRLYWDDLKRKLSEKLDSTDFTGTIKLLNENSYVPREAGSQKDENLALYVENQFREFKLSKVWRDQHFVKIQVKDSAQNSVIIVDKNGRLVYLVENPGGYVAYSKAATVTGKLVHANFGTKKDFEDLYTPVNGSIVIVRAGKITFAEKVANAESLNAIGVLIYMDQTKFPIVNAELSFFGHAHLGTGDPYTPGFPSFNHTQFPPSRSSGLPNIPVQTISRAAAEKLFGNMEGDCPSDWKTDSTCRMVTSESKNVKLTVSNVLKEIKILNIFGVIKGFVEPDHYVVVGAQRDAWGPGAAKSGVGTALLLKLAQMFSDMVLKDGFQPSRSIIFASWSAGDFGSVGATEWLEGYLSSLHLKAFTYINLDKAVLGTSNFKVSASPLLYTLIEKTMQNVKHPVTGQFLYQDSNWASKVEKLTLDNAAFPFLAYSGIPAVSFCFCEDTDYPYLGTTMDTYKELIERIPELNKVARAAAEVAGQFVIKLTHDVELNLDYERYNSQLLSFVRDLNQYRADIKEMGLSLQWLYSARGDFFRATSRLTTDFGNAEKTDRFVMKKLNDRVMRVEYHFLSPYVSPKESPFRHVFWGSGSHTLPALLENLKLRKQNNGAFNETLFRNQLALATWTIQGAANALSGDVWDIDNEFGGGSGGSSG
# [2] = target: T2, CD71 (Homo sapiens (Human), UniProt P02786 89-760); experiment: SPR Biacore X100, conjugate duplexed to biotin-DNA on streptavidin chip, CD71 injected 6.25-100 nM, 1:1 fit
# T2 construct: also called transferrin receptor; TfR1
# T2 sequence (P02786 89-760 limits assumed, form in doubt): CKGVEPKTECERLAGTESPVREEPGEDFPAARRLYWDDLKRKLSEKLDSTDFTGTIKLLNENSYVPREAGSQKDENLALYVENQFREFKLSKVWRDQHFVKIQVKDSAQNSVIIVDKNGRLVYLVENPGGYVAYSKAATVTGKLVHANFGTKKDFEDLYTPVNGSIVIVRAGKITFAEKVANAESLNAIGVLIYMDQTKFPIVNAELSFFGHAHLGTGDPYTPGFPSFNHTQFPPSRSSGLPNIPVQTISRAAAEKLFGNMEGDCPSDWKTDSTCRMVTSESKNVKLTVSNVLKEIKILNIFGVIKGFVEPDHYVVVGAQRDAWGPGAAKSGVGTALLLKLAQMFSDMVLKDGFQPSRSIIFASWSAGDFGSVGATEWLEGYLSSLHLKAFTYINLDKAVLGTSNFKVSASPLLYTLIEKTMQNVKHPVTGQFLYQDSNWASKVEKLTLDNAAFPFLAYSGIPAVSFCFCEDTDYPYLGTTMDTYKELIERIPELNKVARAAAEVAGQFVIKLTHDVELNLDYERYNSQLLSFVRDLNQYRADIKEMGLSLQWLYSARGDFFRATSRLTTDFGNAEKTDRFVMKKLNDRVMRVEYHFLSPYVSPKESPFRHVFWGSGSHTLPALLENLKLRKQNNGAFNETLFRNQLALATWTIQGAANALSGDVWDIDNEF
# Experimental: The binding affinity for each of the following modified oligonucleotides conjugated to CD71 bicycle ligands was tested on a Biacore X100 surface plasmon resonance (SPR) instrument. 200 units of modified oligonucleotides conjugated to CD71 bicycle ligand were immobilized on a streptavidin chip by injecting a 20 nM solution of 5′-Biotin-labeled DNA (5′-Biotin-TEG-DNA complement to modified oligonucleotide) duplexed with modified oligonucleotides conjugated to CD71 bicycle ligand in HBS—P (10 mM HEPES, pH 7.4, 150 mM NaCl, 0.0005% Surfactant P20) running buffer. […] Kinetic and equilibrium binding analysis was performed using Biacore X100 Evaluation Software, applying 1:1 binding fit.
# [3] = target: T1, hCD71-Nluc fusion protein; experiment: nanoBRET competition, tracer BCY17871-1598988 60 nM, HEK293 hCD71-Nluc membranes; remark: listed apart in the source
# Experimental: (§1) The mixtures were incubated for 3 hours at room temperature to reach equilibrium. To initiate BRET, 12.4 μL of 100 μM of the Nluc substrate furimazine was added to each well, and the mixtures were incubated for 5-30 minutes. The assay plate was read on a Promega GlowMax Discover plate reader at wavelengths of 450 nm and 600 nm, and the ratio of emissions at wavelengths 450/600 were used to yield % BRET efficiency. Data was subjected to non-linear regression, then fitted to a single site binding hyperbolic function.
# (§2) In order to evaluate modified oligonucleotides conjugated to CD71 bicycle ligands and RNAi compounds conjugated to CD71 bicycle ligands, the assay was modified as follows. […] Modified oligonucleotides were conjugated to the bicycle ligands through a SPAAC reaction These were then added at a range of concentrations in triplicate assays points, and the mixtures were incubated for 3 hours at room temperature. BRET was initiated with the addition of furimazine and the assay was completed as described above.
# [4] = target: T1, hCD71-Nluc fusion protein; experiment: as above; remark: listed apart in the source
# Experimental: as §1, §2
# [5] = target: T1, hCD71-Nluc fusion protein; experiment: nanoBRET saturation binding, HEK293 hCD71-Nluc membranes, single site fit
# Experimental: as §1
# [6] = target: T1, hCD71-Nluc fusion protein; experiment: nanoBRET competition, tracer BCY17871-1598988 60 nM, HEK293 hCD71-Nluc membranes; remark: listed apart in the source
# Experimental: as §1, §2
# [7] = target: T1, hCD71-Nluc fusion protein; experiment: as above; remark: listed apart in the source
# Experimental: as §1, §2
# [8] = target: T1, hCD71-Nluc fusion protein; experiment: as above; remark: listed apart in the source
# [9] = target: T1, hCD71-Nluc fusion protein; experiment: as above; remark: listed apart in the source
# [10] = target: T1, hCD71-Nluc fusion protein; experiment: as above; remark: listed apart in the source
# [11] = target: T1, hCD71-Nluc fusion protein; experiment: as above; remark: listed apart in the source
# Experimental: as §1, §2
Binder,Ki [6] [nM],Ki [7] [nM],Ki [8] [nM],also measured
"CSPDAHLGCISYCX (not fully specified; as printed CSPDAHLGCISYC[K(N3)]: N-terminal acetyl; C-terminal amide; three Cys bound to TATB scaffold; [K(N3)] 6-azido lysine at 14 joined via BCN linker to oligonucleotide 1590463, also called Compound No. 1590463 conjugated to BCY17868) [1590463-BCY17868]",–,–,–,Ki [1]: 20 nM; Kd [2]: 0.9 nM
"CSPDAHLGCISYCEPWGGSGGSX (not fully specified; as printed CSPDAHLGCISYCEPWGGSGGS[K(N3)]: N-terminal acetyl; C-terminal amidated; three Cys bound to molecular scaffold; [K(N3)] 6-azido lysine at 23 joined via BCN linker to oligonucleotide 1590463, also called Compound No. 1590463 conjugated to BCY19407) [1590463-BCY19407]",–,–,–,Ki [3]: 2 nM
CPXDAYLGCXSYCX (as printed CP[HyP]DAYLGC[tBuGly]SYC[K(N3)]: N-terminal acetyl; C-terminal amide; three Cys bound to TATB scaffold; [HyP] 4-trans-hydroxy-L-proline at 3; [tBuGly] t-butyl glycine at 10; [K(N3)] 6-azido lysine at 14 joined via BCN linker to oligonucleotide 1598988) [1598988-BCY17896],–,–,–,Ki [4]: 9.9 nM
"{oligonucleotide 1590463-BCN linker-azidopropyl}-CS[Aze]DAHLGCISYC-NH2 (linker 1-9-13 via TATB; reading uncertain; also: printed as CiS[Aze]DAHLGCiiISYCiii, also called Compound No. 1590463 conjugated to BCY17880) [1590463-BCY17880]",–,–,–,Ki [1]: 102 nM; Kd [2]: 8.2 nM
"NWNCSPDAHLGCISYCX (as printed NWNCSPDAHLGCISYC[K(N3)]: N-terminal acetyl; C-terminal amide; three Cys bound to TATB scaffold; [K(N3)] 6-azido lysine at 17 joined by SPAAC to BCN on oligonucleotide 1598988, also called tracer compound) [BCY17871-1598988]",–,–,–,Kd [5]: 57 to 58 nM
"Ac-CS[Lys(N3)]DAHLGCISYC-NH2 (linker 1-9-13 via TATB; not fully specified (residue 3); printed as CS[K(N3)]DAHLGCISYC; also: azide of K(N3) in loop clicked via BCN linker to oligonucleotide 1590463, also called Compound No. 1590463 conjugated to BCY17904) [1590463-BCY17904]",5,31,60,–
"CSPDAHLGCISYCEPWX (not fully specified; as printed CSPDAHLGCISYCEPW[K(N3)]: N-terminal acetyl; C-terminal amide; three Cys bound to TATB scaffold; [K(N3)] 6-azido lysine at 17 joined via BCN linker to oligonucleotide 1609732, also called Compound No. 1609732 conjugated to BCY17873) [1609732-BCY17873]",1,–,10,–
"{oligonucleotide 1590463-BCN linker-azidopropyl}-CP[Hyp]DAYLGCISYC-NH2 (linker 1-9-13 via TATB; reading uncertain; also: printed as CP[HyP]DAYLGCISYC, also called Compound No. 1590463 conjugated to BCY17876) [1590463-BCY17876]",–,–,–,Ki [1]: 29 nM; Kd [2]: 95.4 nM
"CSPDAHLGCISYCEPWX (not fully specified; as printed CSPDAHLGCISYCEPW[K(N3)]: N-terminal acetyl; C-terminal amide; three Cys bound to TATB scaffold; [K(N3)] 6-azido lysine at 17 joined via BCN linker to sense strand 1550983 of the RNAi duplex 1453015:1550983, nucleic acids; also called RNAi compound 1453015:1550983 conjugated to BCY17873) [1453015:1550983-BCY17873]",–,–,–,Ki [9]: 9 nM; Ki [10]: 38 nM
"CPXDAYLGCXSYCX (not fully specified; as printed CP[HyP]DAYLGC[tBuGly]SYC[K(N3)]: N-terminal acetyl; C-terminal amide; three Cys bound to TATB scaffold; [HyP] 4-trans-hydroxy-L-proline at 3; [tBuGly] t-butyl glycine at 10; [K(N3)] 6-azido lysine at 14 joined via BCN linker to oligonucleotide 1590463, also called Compound No. 1590463 conjugated to BCY17896) [1590463-BCY17896]",1,2,2,–
"CSPDAHLGCISYCEPWX (as printed CSPDAHLGCISYCEPW[K(N3)]: N-terminal acetyl; C-terminal amide; three Cys bound to TATB scaffold; [K(N3)] 6-azido lysine at 17 joined to oligonucleotide 1602000 ([PEG1alkyne] linker), also called Compound No. 1602000 conjugated to BCY17873) [1602000-BCY17873]",1,–,36,–
"Ac-CSPDAHLGCISYCEPW (linker 1-9-13 via TATB; not fully specified (C-terminus); printed as CSPDAHLGCISYCEPW[PEG24][K(N3)]; also: azide of C-terminal K(N3) clicked via BCN linker to oligonucleotide 1590463, also called Compound No. 1590463 conjugated to BCY19406) [1590463-BCY19406]",–,–,–,Ki [3]: 2 nM
"CSPDAHLGCISYCEXWX (not fully specified; as printed CSPDAHLGCISYCE[dP]W[K(N3)]: N-terminal acetyl; C-terminal amide; three Cys bound to TATB scaffold; [dP] D-proline at 15; [K(N3)] 6-azido lysine at 17 joined via BCN linker to oligonucleotide 1590463, also called Compound No. 1590463 conjugated to BCY17890) [1590463-BCY17890]",2,17,20,–
"Ac-C[Lys(N3)]PDAHLGCISYC-NH2 (linker 1-9-13 via TATB; not fully specified (residue 2); printed as C[K(N3)]PDAHLGCISYC; also: azide of K(N3) in loop clicked via BCN linker to oligonucleotide 1590463, also called Compound No. 1590463 conjugated to BCY17903) [1590463-BCY17903]",24,125,–,–
"CSPDAHLGCISYCEXWX (not fully specified; as printed CSPDAHLGCISYCE[Pip]W[K(N3)]: N-terminal acetyl; C-terminal amide; three Cys bound to TATB scaffold; [Pip] pipecolic acid at 15; [K(N3)] 6-azido lysine at 17 joined via BCN linker to oligonucleotide 1590463, also called Compound No. 1590463 conjugated to BCY17894) [1590463-BCY17894]",1,8,10,–
"Ac-CSPD[Lys(N3)]HLGCISYC-NH2 (linker 1-9-13 via TATB; not fully specified (residue 5); printed as CSPD[K(N3)]HLGCISYC; also: azide of K(N3) in loop clicked via BCN linker to oligonucleotide 1590463, also called Compound No. 1590463 conjugated to BCY17905) [1590463-BCY17905]",16,148,–,–
"CSPDAHLGCISYCEPWX (not fully specified; as printed CSPDAHLGCISYCEPW[K(N3)]: N-terminal acetyl; C-terminal amide; three Cys bound to TATB scaffold; [K(N3)] 6-azido lysine at 17 joined via BCN linker to oligonucleotide 1614438 of the duplex 486178:1614438, nucleic acids; also called Compound No. 486178:1614438 conjugated to BCY17873) [486178:1614438-BCY17873]",–,–,–,Ki [11]: 95 nM
